Laboratory results published in patent publication US20140105889A1 (published 2014).

Legend:
[1] = biological target: T1, human FcγRIIb (human, UniProt P31994 43-217, limits assumed); assay: SPR (Biacore), antibody captured on Protein L, human FcgR as analyte, pH 7.4, 25 C; amount normalised to captured antibody
T1 construct: also called hFcgRIIb; FcγIIB
T1 sequence: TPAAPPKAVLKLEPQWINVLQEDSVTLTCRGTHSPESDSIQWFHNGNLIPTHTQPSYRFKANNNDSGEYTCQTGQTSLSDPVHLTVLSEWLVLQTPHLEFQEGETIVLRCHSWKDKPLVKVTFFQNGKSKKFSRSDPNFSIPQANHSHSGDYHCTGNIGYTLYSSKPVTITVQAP
Procedure: (§1) Binding activity between the antibodies and human FcγRIa, FcγRIIa(H), FcγRIIa(R), FcγRIIb and FcγRIIIa(F) (hereinafter referred to as human FcγRs) was evaluated using the Biacore T100 or T200 (GE Healthcare). The antibodies being tested were captured by Protein L (ACTIGEN) that was immobilized in suitable amounts on the CM4 Sensor Chip (GE Healthcare) by amine coupling. Next, the diluted human FcγRs and a running buffer used as a blank were injected to allow interaction with the antibodies captured on the sensor chip. A buffer consisting of 20 mmol/L ACES, 150 mmol/L NaCl and 0.05% (w/v) Tween 20 (pH 7.4) was used for the running buffer, and this buffer was also used to dilute the human FcγRs. 10 mmol/L glycine-HCl (pH 1.5) was used to regenerate the sensor chip. All measurements were carried out at 25° C.
(§2) Binding activity to human FcγRs can be represented by the relative binding activity to human FcγRs. Antibody was captured by Protein L, and the amount of change in a sensorgram before and after the antibody was captured was defined as X1. Next, human FcγRs were allowed to interact with the antibody, and the value obtained by subtracting binding activity of human FcγRs represented as the amount of change in a sensorgram before and after allowing the running buffer to interact with antibody captured by Protein L (ΔA2) from the value obtained by multiplying by 1500 the value obtained by dividing the binding activity of human FcγRs represented as the amount of change in a sensorgram before and after that interaction (ΔA1) by the captured amount (X) of each antibody, was divided by the captured amount of each antibody (X) followed by multiplying by 1500 to obtain the binding activity of the human FcγRs (Y) (Equation 2).

[2] = biological target: T2, human FcγRIIIa(F) (human, UniProt P08637 17-208, limits assumed); assay: as above
T2 construct: also called hFcgRIIIa(F); allotype F158
T2 sequence (P08637 other isoform, or with tags, fused parts or gaps limits assumed): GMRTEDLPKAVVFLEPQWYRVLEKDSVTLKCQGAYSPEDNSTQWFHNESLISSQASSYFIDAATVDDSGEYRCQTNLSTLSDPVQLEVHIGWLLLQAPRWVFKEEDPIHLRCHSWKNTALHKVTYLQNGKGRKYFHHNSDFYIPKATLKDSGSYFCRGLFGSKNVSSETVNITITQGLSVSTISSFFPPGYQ
Procedure: as §1, §2

[3] = biological target: T3, human FcγRIIb (human, UniProt P31994 43-217, limits assumed); assay: ratio of this variant's SPR KD for FcγRIIaR to its KD for FcγRIIb
T3 construct: also called FcγIIB; hFcgRIIb
T3 sequence: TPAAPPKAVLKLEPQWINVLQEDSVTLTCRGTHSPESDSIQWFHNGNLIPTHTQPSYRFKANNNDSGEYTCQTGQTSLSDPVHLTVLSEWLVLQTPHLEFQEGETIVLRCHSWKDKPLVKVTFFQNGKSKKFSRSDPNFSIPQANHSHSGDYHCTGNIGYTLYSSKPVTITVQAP
Source text: (§3) Furthermore, KD(IIaR)/KD(IIb) and KD(IIaH)/KD(IIb) in the table respectively represent the value obtained by dividing the KD value of each variant for FcγRIIaR by the KD value of each variant for FcγRIIb, and the value obtained by dividing the KD value of each variant for FcγRIIaH by the KD value of each variant for FcγRIIb.

[4] = biological target: T4, human FcγRIIa type R (human, UniProt P12318 36-217); assay: SPR KD of this variant's stronger FcγRIIa allotype binding divided by that of parent IL6R-B3/IL6R-L
T4 construct: also called FcγRIIaR; FcγRIIa(R)
T4 chain: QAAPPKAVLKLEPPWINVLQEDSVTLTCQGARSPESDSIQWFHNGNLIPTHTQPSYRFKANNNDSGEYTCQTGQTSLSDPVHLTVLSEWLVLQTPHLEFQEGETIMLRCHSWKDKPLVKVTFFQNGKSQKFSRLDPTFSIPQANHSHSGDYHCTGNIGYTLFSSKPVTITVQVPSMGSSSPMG
Source text: as §3

[5] = biological target: T3, human FcγRIIb; assay: ratio of this variant's SPR KD for FcγRIIaH to its KD for FcγRIIb
Source text: as §3

[6] = biological target: T5, human FcγRIIIa type V (allotype V158) (human, UniProt P08637 17-208, limits assumed); assay: SPR (Biacore), antibody captured on the chip, FcγR as analyte
T5 construct: the assay used allotype V158; also called FcγRIIIaV; FcγRIIIa(V)
T5 sequence (P08637 other isoform, or with tags, fused parts or gaps limits assumed): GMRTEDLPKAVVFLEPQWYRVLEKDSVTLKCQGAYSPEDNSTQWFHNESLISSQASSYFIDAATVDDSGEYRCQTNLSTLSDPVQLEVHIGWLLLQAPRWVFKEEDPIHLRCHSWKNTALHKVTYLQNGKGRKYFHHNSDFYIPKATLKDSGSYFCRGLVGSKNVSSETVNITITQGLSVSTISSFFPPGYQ

[7] = biological target: T6, human FcγRIIa type R (allotype R131) (human, UniProt P12318 36-217); assay: as above
T6 construct: also called FcγRIIaR; FcγRIIa(R)
T6 chain: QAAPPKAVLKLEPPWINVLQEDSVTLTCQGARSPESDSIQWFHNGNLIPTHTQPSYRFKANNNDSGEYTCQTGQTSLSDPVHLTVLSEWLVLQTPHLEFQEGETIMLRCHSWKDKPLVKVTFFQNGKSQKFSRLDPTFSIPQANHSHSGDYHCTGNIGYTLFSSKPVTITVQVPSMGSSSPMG

[8] = biological target: T7, human FcγRIIa type H (allotype H131) (human, UniProt P12318 36-217); assay: as above
T7 construct: also called FcγRIIaH; FcγRIIa(H)
T7 sequence: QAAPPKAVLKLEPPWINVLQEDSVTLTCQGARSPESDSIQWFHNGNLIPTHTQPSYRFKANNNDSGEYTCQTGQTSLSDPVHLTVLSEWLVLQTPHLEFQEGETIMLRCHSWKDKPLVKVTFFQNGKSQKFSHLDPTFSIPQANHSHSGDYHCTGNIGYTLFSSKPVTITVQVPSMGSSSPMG

[9] = biological target: T8, human FcγRIIb (human, UniProt P31994 43-217); assay: SPR (Biacore); KD of parent IL6R-B3/IL6R-L for FcγRIIb divided by KD of the variant for FcγRIIb
T8 construct: also called FcγIIB
T8 sequence: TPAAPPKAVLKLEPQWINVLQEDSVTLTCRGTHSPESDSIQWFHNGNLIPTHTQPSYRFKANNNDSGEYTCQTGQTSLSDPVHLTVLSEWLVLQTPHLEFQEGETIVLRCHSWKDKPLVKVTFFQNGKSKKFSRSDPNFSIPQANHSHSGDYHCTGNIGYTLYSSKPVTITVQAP
Source text: as §3

[10] = biological target: T9, human FcγRIIIa(F) (human, UniProt P08637 17-208, limits assumed); assay: SPR (Biacore T100), antibody captured by Protein A, FcγR at 2 µmol/L, 25 C
T9 construct: also called hFcgRIIIa(F)
Procedure: (§4) Next, interaction between these antibodies and FcγR was analyzed kinetically using the Biacore T100 (GE Healthcare). The interaction was measured at a temperature of 25° C. using HBS-EP+ (GE Healthcare) for the running buffer. The Series S Sensor Chip CM5 (GE Healthcare) was used after immobilizing Protein A by amine coupling. […] Antibody captured on the chip was washed by allowing 10 mM glycine-HCl (pH 1.5) to react following measurement. The chip regenerated in this manner was used repeatedly. The dissociation constant KD (mol/L) was calculated from the association rate constant ka (L/mol/s) and dissociation rate constant kd (1/s) as calculated by global-fitting the measurement results with a 1:1 Langmuir binding model using the Biacore

[11] = biological target: T10, human FcγRIIa(H) (human, UniProt P12318 36-217); assay: as above
T10 construct: also called hFcgRIIa(H); FcγRIIa type H
T10 sequence: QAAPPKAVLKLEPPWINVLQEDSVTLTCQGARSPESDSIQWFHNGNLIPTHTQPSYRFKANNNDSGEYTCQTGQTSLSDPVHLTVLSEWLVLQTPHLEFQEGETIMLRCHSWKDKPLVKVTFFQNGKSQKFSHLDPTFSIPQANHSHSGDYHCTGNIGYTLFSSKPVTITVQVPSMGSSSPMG
Procedure: as §4

B1: antibody containing VH3-IgG1-F1326 for the heavy chain and L(WT)-CK for the light chain (antibody)
heavy: QVQLQESGPGLVKPSETLSLTCAVSGHSISHDHAWSWVRQPPGEGLEWIGFISYSGITNYNPSLQGRVTISRDNSKNTLYLQMNSLRAEDTAVYYCARSLARTTAMDYWGEGTLVTVSSASTKGPSVFPLAPSSKSTSGGTAALGCLVKDYFPEPVTVSWNSGALTSGVHTFPAVLQSSGLYSLSSVVTVPSSSLGTQTYICNVNHKPSNTKVDKKVEPKSCDKTHTCPPCPAPEAAGGPSVFLFPPKPKDVLYISRTPEVTCVVVDVSHEDPEVKFNWYVDGVEVHNAKTKPREEQYNSTYRVVSVLQPLHADWLNGKEYKCKVSNKALPAPIEKTISKAKGQPREPQVYTLPPSRDELTKNQVSLTCLVKGFYPSDIAVEWESNGQPENNYKTTPPVLDSDGSFFLYSKLTVDKSRWQQGNVFSCSVMHEALHYHVTQKSLSLSP
light: not shown
For B1, the “BINDING AMOUNT (RU)” value [1] was 5.46 RU and the “BINDING AMOUNT (RU)” value [2] was 9.51 RU.

B2: IL6R-BP089/IL6R-L (antibody, human IgG1)
heavy: QVQLQESGPGLVKPSETLSLTCAVSGHSISHDHAWSWVRQPPGEGLEWIGFISYSGITNYNPSLQGRVTISRDNSKNTLYLQMNSLRAEDTAVYYCARSLARTTAMDYWGEGTLVTVSSASTKGPSVFPLAPSSKSTSGGTAALGCLVKDYFPEPVTVSWNSGALTSGVHTFPAVLQSSGLYSLSSVVTVPSSSLGTQTYICNVNHKPSNTKVDKKVEPKSCDKTHTCPPCPAPEYLGGDSVFLFPPKPKDTLMISRTPEVTCVVVDVSHEDPEVKFNWYVDGVEVHNAKTKPREEQYNSTYRVVSVLTVLHQDWLNGKEYKCKVSNAALPKPIEKTISKAKGQPREPQVYTLPPSRDELTKNQVSLTCLVKGFYPSDIAVEWESNGQPENNYKTTPPVLDSDGSFFLYSKLTVDKSRWQQGNVFSCSVMHEALHNHYTQESLSLSP
light: DIQMTQSPSSLSASVGDRVTITCRASQDISSYLNWYQQKPGKAPKLLIYYTSRLHSGVPSRFSGSGSGTDFTFTISSLQPEDIATYYCQQGNTLPYTFGQGTKVEIK
notes: copies: 2 + 2
With B2 the “KD (IIaR)/KD (IIb)” value [3] was 16.6, the “KD value for the stronger of the FcγRIIaR- and FcγRIIaH-binding activities of the variant/that of the parent polypeptide” value [4] was 6.3 and the “KD (IIaH)/KD (IIb)” value [5] was 51.9.

B3: IL6R-BP185/IL6R-L (antibody, human IgG1)
heavy: QVQLQESGPGLVKPSETLSLTCAVSGHSISHDHAWSWVRQPPGEGLEWIGFISYSGITNYNPSLQGRVTISRDNSKNTLYLQMNSLRAEDTAVYYCARSLARTTAMDYWGEGTLVTVSSASTKGPSVFPLAPSSKSTSGGTAALGCLVKDYFPEPVTVSWNSGALTSGVHTFPAVLQSSGLYSLSSVVTVPSSSLGTQTYICNVNHKPSNTKVDKKVEPKSCDKTHTCPPCPAPDYLGDDSVFLFPPKPKDTLMISRTPEVTCVVVDVSHEDGEVKFNWYVDGVEVHNAKTKPREEQYNSTYRVVSVLTVLHQDWLNGKEYKCKVSNAALPKPIEKTISKAKGQPREPQVYTLPPSRDELTKNQVSLTCLVKGFYPSDIAVEWESNGQPENNYKTTPPVLDSDGSFFLYSKLTVDKSRWQQGNVFSCSVMHEALHNHYTQESLSLSP
light: DIQMTQSPSSLSASVGDRVTITCRASQDISSYLNWYQQKPGKAPKLLIYYTSRLHSGVPSRFSGSGSGTDFTFTISSLQPEDIATYYCQQGNTLPYTFGQGTKVEIK
notes: Anti-human IL-6 receptor human IgG1 variant; copies: 2 + 2
A Kd [6] of 36 µM, a Kd [7] of 0.68 µM and a Kd [8] of 7.3 µM were found for B3 in this work. The “KD(IIb) of the parent polypeptide/KD(IIb) of the altered polypeptide” value [9] was 44.5.

B4: IgG1-v1 (antibody)
heavy: not shown
light: DIQMTQSPSSLSASVGDRVTITCRASQDISSYLNWYQQKPGKAPKLLIYYTSRLHSGVPSRFSGSGSGTDFTFTISSLQPEDIATYYCQQGNTLPYTFGQGTKVEIK
notes: copies: 2 + 2
For B4, the “binding (RU)” value [10] was roughly 2.5 RU and the “binding (RU)” value [11] was roughly 2.5 RU.

B5: IgG1-v2 (antibody)
heavy: not shown
light: DIQMTQSPSSLSASVGDRVTITCRASQDISSYLNWYQQKPGKAPKLLIYYTSRLHSGVPSRFSGSGSGTDFTFTISSLQPEDIATYYCQQGNTLPYTFGQGTKVEIK
notes: copies: 2 + 2
B5 was tested, and the “binding (RU)” value [10] was roughly 5 RU and the “binding (RU)” value [11] was roughly 10 RU.
